Test results taken from publication PMC4357722, “A novel endonuclease that may be responsible for damaged DNA base repair in Pyrococcus furiosus”.

Biological target: T1, PfuEndoQ (PF1551) (Pyrococcus furiosus, UniProt Q8U0N5 1-424)
T1 sequence: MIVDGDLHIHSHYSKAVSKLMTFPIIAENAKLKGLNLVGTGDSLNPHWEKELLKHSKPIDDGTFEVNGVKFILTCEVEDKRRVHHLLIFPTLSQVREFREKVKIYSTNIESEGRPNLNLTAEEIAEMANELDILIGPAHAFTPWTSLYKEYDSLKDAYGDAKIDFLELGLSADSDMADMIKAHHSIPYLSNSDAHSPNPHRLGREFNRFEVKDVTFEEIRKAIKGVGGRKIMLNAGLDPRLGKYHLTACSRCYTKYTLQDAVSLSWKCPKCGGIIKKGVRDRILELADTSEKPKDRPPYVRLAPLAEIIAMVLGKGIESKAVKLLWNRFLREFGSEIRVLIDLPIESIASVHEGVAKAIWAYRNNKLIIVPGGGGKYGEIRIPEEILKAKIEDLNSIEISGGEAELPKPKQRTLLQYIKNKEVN
Assay: EMSA; 1 mM Mg2+; 60 C; EMSA: 50 mM Tris-HCl pH 8.0, 1 mM MgCl2, 1 mM DTT, 0.01% Tween 20, 60 C 10 min, 5 nM DNA, 0-50 nM protein; 4% PAGE in TBE
Settings: protein: recombinant; tags: none (untagged; native stop codon in the reverse primer, pET21d); blunt

B1: 45N dsDNA (normal duplex) (dsDNA)
DNA 1: CGAACTGCCTGGAATCCTGACGACATGTAGCGAACGATCACCTCA
DNA 2: TGAGGTGATCGTTCGCTACATGTCGTCAGGATTCCAGGCAGTTCG
Question: Does B1 bind?
Answer: no binding
